Article PMC10465592, “Reduced ADP off-rate by the yeast CCT2 double mutation T394P/R510H which causes Leber congenital amaurosis in humans” (Communications Biology, 2023)

Columns and labels:
Test in all cases: steady-state ATPase, coumarin-labelled phosphate-binding protein fluorescence, fit to two allosteric transitions
Type in all cases: biochemical, Saccharomyces cerevisiae
Conditions in all cases: 25 °C, pH 7.5 Tris-HCl, 10 mM MgCl2, 50 mM KCl, 20% glycerol, 1 mM DTT, first ring (stronger site), cooperative
[1] = tested on: T1, Nc1ncnc2c1ncn2[C@@H]1O[C@H](COP(=O)(O)OP(=O)(O)OP(=O)(O)O)[C@@H](O)[C@H]1O
T1 construct: native complex from yeast cells, two back-to-back rings each of eight distinct subunits CCT1-CCT8; CCT2 mutations introduced in the chromosomal gene
From the text: steady-state ATPase, coumarin-labelled phosphate-binding protein fluorescence, fit to two allosteric transitions on CCT/TRiC (Saccharomyces cerevisiae) | In the case of the R510H single mutant, the values of the apparent ATP binding

[2] = tested on: T1, Nc1ncnc2c1ncn2[C@@H]1O[C@H](COP(=O)(O)OP(=O)(O)OP(=O)(O)O)[C@@H](O)[C@H]1O; remark: listed apart in the source
From the text: steady-state ATPase, coumarin-labelled phosphate-binding protein fluorescence, fit to two allosteric transitions on CCT/TRiC (Saccharomyces cerevisiae) | In the case of the wild-type, the values of the apparent ATP binding constants

[3] = tested on: T1, Nc1ncnc2c1ncn2[C@@H]1O[C@H](COP(=O)(O)OP(=O)(O)OP(=O)(O)O)[C@@H](O)[C@H]1O; remark: listed apart in the source
From the text: steady-state ATPase, coumarin-labelled phosphate-binding protein fluorescence, fit to two allosteric transitions on CCT/TRiC (Saccharomyces cerevisiae) | In the case of the T394P single mutant, the values of the apparent ATP binding

Substance: CCT/TRiC (Saccharomyces cerevisiae) (Saccharomyces cerevisiae S288C; P39076:R510H)
- K0.5 [1]: 7.1 (±2.4) μM
- kcat [1]: 0.10 (±0.03) s^-1

Substance: CCT/TRiC (Saccharomyces cerevisiae) (Saccharomyces cerevisiae S288C)
- K0.5 [2]: 8.3 (±1.6) μM
- kcat [2]: 0.043 (±0.005) s^-1

Substance: CCT/TRiC (Saccharomyces cerevisiae) (Saccharomyces cerevisiae S288C; P39076:T394P)
- K0.5 [3]: 8.9 (±3.4) μM
- kcat [3]: 0.11 (±0.03) s^-1
